Reference: ChEMBL document CHEMBL3392998
The source made the active and inactive calls. The calls are words filed in the database; no cut-off is given here.

Tests used:
[1] = tested on: O=C1c2cccc([N+](=O)[O-])c2C(=O)N1c1ccc2[nH]c(=S)sc2c1; settings: Human immunodeficiency virus 1; 100 uM
[2] = tested on: O=C1c2cccc([N+](=O)[O-])c2C(=O)N1c1ccc2[nH]c(=S)sc2c1; settings: Human immunodeficiency virus 1; 100 uM; remark: listed apart in the source
[3] = tested on: O=C1c2cccc([N+](=O)[O-])c2C(=O)N1c1ccc2[nH]c(=S)sc2c1; settings: Human immunodeficiency virus 1; 150 uM
[4] = tested on: O=C1c2cccc([N+](=O)[O-])c2C(=O)N1c1ccc2[nH]c(=S)sc2c1; settings: Human immunodeficiency virus 1; 150 uM; remark: listed apart in the source
[5] = tested on: Human immunodeficiency virus type 1 protease (Human immunodeficiency virus 1), Q72874 [L10I,L63P,A71V,G73S,I84V,L90M]; settings: 1 to 180 uM
[6] = molecular target: Protease (Human immunodeficiency virus 1) (UniProt Q9YQ12); settings: 1 to 180 uM
[7] = tested on: O=C1c2cccc([N+](=O)[O-])c2C(=O)N1c1ccc2[nH]c(=S)sc2c1; settings: Human immunodeficiency virus 1; 100 uM; remark: listed apart in the source
[8] = tested on: O=C1c2cccc([N+](=O)[O-])c2C(=O)N1c1ccc2[nH]c(=S)sc2c1; settings: Human immunodeficiency virus 1; 150 uM; remark: listed apart in the source
[9] = tested on: O=C1c2cccc([N+](=O)[O-])c2C(=O)N1c1ccc2[nH]c(=S)sc2c1; settings: Human immunodeficiency virus 1; 150 uM; remark: listed apart in the source
[10] = tested on: O=C1c2cccc([N+](=O)[O-])c2C(=O)N1c1ccc2[nH]c(=S)sc2c1; settings: Human immunodeficiency virus 1; 100 uM; remark: listed apart in the source

Protease (Human immunodeficiency virus 1), Q9YQ12
Km [1]: 144 µM | Vmax [2]: 35 nM/s | Km [3]: 184 µM | Vmax [4]: 34 nM/s

O=C1c2cccc([N+](=O)[O-])c2C(=O)N1c1ccc2[nH]c(=S)sc2c1
inhibition [5]: inactive | inhibition [6]: inactive

Human immunodeficiency virus type 1 protease (Human immunodeficiency virus 1), Q72874 L10I,L63P,A71V,G73S,I84V,L90M
Vmax [7]: 30 nM/s | Km [8]: 359 µM | Vmax [9]: 30 nM/s | Km [10]: 246 µM
